Numbering of substitutions follows the chain as printed.
Legend:
[1] = molecular target: pertussis toxin B-oligomer (Bordetella pertussis), P04978; experiment: SPR BIAcore 3000, mAb 1B7 immobilised ~1000 RU; settings: remark: other sources report otherwise
[2] = molecular target: T1, PTx-S1-220, truncated recombinant S1 subunit (residues 1-220) (Bordetella pertussis strain Tohama I), P04977; experiment: SPR BIAcore 3000, mAb 1B7 immobilised ~1000 RU; settings: remark: other sources report otherwise
[3] = molecular target: pertussis toxin holotoxin (Bordetella pertussis), P04977; experiment: SPR BIAcore 3000, mAb 1B7 immobilised ~1000 RU; settings: remark: other sources report otherwise
PTx-S1D (1-220) [4] = molecular target: T2, PTx-S1D (1-220) (Bordetella pertussis, UniProt P04977 35-254); experiment: SPR
T2 chain: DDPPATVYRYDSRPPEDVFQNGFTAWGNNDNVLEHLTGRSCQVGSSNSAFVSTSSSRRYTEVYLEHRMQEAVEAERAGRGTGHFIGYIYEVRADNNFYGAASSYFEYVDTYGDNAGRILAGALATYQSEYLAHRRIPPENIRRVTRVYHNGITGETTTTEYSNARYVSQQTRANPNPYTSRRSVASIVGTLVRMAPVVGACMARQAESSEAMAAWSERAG

PTx-S1A (1-220) [5] = molecular target: T3, PTx-S1A (1-220) (Bordetella pertussis, UniProt P04977 36-255, M194I); experiment: SPR
T3 sequence: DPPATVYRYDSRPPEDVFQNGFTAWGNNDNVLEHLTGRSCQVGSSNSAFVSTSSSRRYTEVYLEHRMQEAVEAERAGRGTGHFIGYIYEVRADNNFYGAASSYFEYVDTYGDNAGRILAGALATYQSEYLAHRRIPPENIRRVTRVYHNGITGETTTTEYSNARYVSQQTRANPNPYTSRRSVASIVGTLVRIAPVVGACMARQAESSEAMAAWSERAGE

[6] = molecular target: pertussis toxin B-oligomer (Bordetella pertussis), P04978; experiment: ELISA repeated with mAb 1B7; settings: remark: other sources report otherwise
PTx-S1-220 Y8A = molecular target: T4, PTx-S1-220 Y8A (Bordetella pertussis strain Tohama I, UniProt P04977 36-255, Y8A); experiment: Western blot (text: 1B7 was unable to bind Y8A)
T4 sequence: T3 sequence with Y7A, I193M

PTx-S1D (1-220) [7] = molecular target: T2, PTx-S1D (1-220); experiment: SPR BIAcore 3000, mAb 1B7 immobilised ~1000 RU
PTx-S1A (1-220) [8] = molecular target: T3, PTx-S1A (1-220); experiment: SPR BIAcore 3000, mAb 1B7 immobilised ~1000 RU
PTx-S1 9K/129G (1-220) = molecular target: T5, PTx-S1 9K/129G (1-220) (Bordetella pertussis, UniProt P04977 36-255, R9K; E129G); experiment: SPR BIAcore 3000, mAb 1B7 immobilised ~1000 RU
T5 construct: also called R9K, E129G variant
T5 sequence: T3 sequence with R8K, E128G, I193M

PTx-S1-220 Y148A = molecular target: T6, PTx-S1-220 Y148A (Bordetella pertussis strain Tohama I, UniProt P04977 36-255, Y148A); experiment: SPR, mAb 1B7 immobilised ~1000 RU
T6 sequence: T3 sequence with Y147A, I193M

PTx-S1-220 R39A = molecular target: T7, PTx-S1-220 R39A (Bordetella pertussis strain Tohama I, UniProt P04977 36-255, R39A); experiment: SPR, mAb 1B7 immobilised ~1000 RU
T7 sequence: T3 sequence with R38A, I193M

PTx-S1-220 R146A = molecular target: T8, PTx-S1-220 R146A (Bordetella pertussis strain Tohama I, UniProt P04977 36-255, R146A); experiment: SPR, mAb 1B7 immobilised ~1000 RU
T8 sequence: T3 sequence with R145A, I193M

[9] = molecular target: T1, PTx-S1-220, truncated recombinant S1 …; experiment: SPR, mAb 1B7 immobilised ~1000 RU; settings: remark: other sources report otherwise

B1: monoclonal antibody 1B7 (antibody)
chain: DIQMTQSPALMSASPGEKVTMTCSASSSVSFMYWYQQKPRSSPKPWIYLTSNLPSGVPARFSGSGSGTSYSLTISSMEAEDAATYYCQQWSSHPPTFGSGTKLEIKRGGGGSGGGGSGGGGSGGGGSEVQLQQSGSELVRPGASVKLSCKASGYKFTSYWMHWVKQRPGQGLEWIGNIFPGSGSTNYDEKFNSKATLTVDTSSNTAYMQLSSLTSEDSAVYYCTRWLSGAYFDYWGQGTTLTVSSASGA
notes: also called mAb 1B7; 1B7 mAb
koff [1]: 0.0027 s⁻¹ | koff [2]: 0.0014 s⁻¹ | koff [3]: 0.0004 s⁻¹ | fold decrease in off-rate versus WT PTx-S1-220 (PTx-S1D (1-220) [4]): ~2 fold | fold decrease in off-rate versus WT PTx-S1-220 (PTx-S1A (1-220) [5]): ~2 fold | EC50-PTx (%) [6]: 30% | binding result (PTx-S1-220 Y8A): no binding | koff (PTx-S1D (1-220) [7]): 0.00095 s⁻¹ | koff (PTx-S1A (1-220) [8]): 0.00071 s⁻¹ | koff (PTx-S1 9K/129G (1-220)): 0.0016 s⁻¹ | koff (PTx-S1-220 Y148A): 0.029 s⁻¹ | koff (PTx-S1-220 R39A): 0.003 s⁻¹ | koff (PTx-S1-220 R146A): 0.0015 s⁻¹ | koff [9]: 0.0014 s⁻¹

Reference: patent publication US20120244144A1 (University of Texas, published 2012)
